Laboratory results reported in patent US20230147840A1 (Chugai, published 2023).
Positions count from the first letter of the chain named. Values belong to the binder of their own block, whether it stands above or below them.

Assays:
[1] = biological target: T1, Human CD137 extracellular domain (ECD) (human); assay: SPR Biacore 8K, Ab captured on anti-human Fc, CD137 as analyte, 37 C
T1 construct: also called Human CD137 ECD; recombinant human CD137
Procedure: (§1) Binding affinity of Dual-Ig antibodies to human CD3 were assessed at 25 degrees C. using Biacore 8K instrument (GE Healthcare). Anti-human Fc (GE Healthcare) was immobilized onto all flow cells of a CM4 sensor chip using amine coupling kit (GE Healthcare). Antibodies were captured onto the anti-Fc sensor surfaces, then recombinant human CD3 or CD137 was injected over the flow cell. All antibodies and analytes were prepared in ACES pH 7.4 containing 20 mM ACES, 150 mM NaCl, 0.05% Tween 20, 0.005% NaN₃. Sensor surface was regenerated each cycle with 3M MgCl₂. […] CD137 binding affinity assay was conducted in same condition except assay temperature was set at 37 degrees C.

Human CD3eg linker [2] = biological target: T2, Human CD3eg linker (human); assay: SPR Biacore 8K, Ab captured on anti-human Fc, CD3 as analyte, 25 C
T2 construct: Single-chain soluble construct; also called recombinant human CD3
T2 chain: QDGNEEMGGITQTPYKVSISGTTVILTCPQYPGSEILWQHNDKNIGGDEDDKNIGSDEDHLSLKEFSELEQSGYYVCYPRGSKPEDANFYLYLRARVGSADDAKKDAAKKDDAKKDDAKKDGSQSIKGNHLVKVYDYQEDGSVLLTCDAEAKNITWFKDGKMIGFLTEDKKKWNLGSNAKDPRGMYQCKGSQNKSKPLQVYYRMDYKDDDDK
Procedure: as §1

Human CD3eg linker [3] = biological target: T2, Human CD3eg linker; assay: SPR Biacore 8K, 25 C; reference xGPC3/DualAE05-xSG1350kSG1349hV11
Procedure: as §1
This is caused by faster off rate in FAST-Ig construct. […] This is caused by faster off rate in FAST-Ig construct.

[4] = biological target: T1, Human CD137 extracellular domain (ECD); assay: SPR (Biacore T200, 25 degrees C), in-tandem blocking assay; antibody captured on anti-human Fc, first saturated with 8 µM hCD3eg, then 8 µM hCD137 injected in the presence of 8 µM hCD3eg
Procedure: (§2) Biacore in-tandem blocking assay was performed to characterize non-simultaneous binding of Dual-Ig Ab for both CD3 and CD137. The assay was performed on Biacore T200 instrument (GE Healthcare) at 25 degrees C. in ACES pH 7.4 buffer containing 20 mM ACES, 150 mM NaCl, 0.05% Tween 20, 0.005% NaN₃. Anti-human Fc (GE Healthcare) was immobilized onto all flow cells of a CM4 sensor chip using amine coupling kit (GE Healthcare). Antibodies were captured onto the anti-Fc sensor surfaces, then 8 micro M CD3 was injected over the flow cell followed by an identical injection of 8 micro M CD137 in the presence of 8 micro M CD3. An increased of binding response for second injection was indicative of binding to different paratopes therefore a simultaneous binding interactions; whereas no enhancement or decreased of binding response for the 2nd injection was indicative of binding to the same or overlapping or adjacent paratopes, therefore a non-simultaneous binding interactions.

Human CD3eg linker [5] = biological target: T2, Human CD3eg linker; assay: SPR (Biacore T200, 25 degrees C), in-tandem blocking assay; antibody captured on anti-human Fc, 8 µM hCD3eg injected as analyte
Procedure: as §2

T1 sequence (chain, as listed by the source limits assumed): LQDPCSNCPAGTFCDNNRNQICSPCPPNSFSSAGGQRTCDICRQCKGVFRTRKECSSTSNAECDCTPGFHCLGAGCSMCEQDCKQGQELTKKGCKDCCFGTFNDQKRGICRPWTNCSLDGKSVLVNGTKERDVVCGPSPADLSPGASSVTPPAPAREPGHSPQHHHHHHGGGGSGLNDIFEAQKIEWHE

Kd [1]: 0.038 µM
koff [1]: 0.000506 s⁻¹
kon [1]: 13300 M⁻¹ s⁻¹
Kd (Human CD3eg linker [2]): 0.806 µM
koff (Human CD3eg linker [2]): 0.0611 s⁻¹
kon (Human CD3eg linker [2]): 75900 M⁻¹ s⁻¹
fold weaker binding affinity than CrossMab xSG1350 (Human CD3eg linker [3]): ~3 fold
B1: GPC3KE/DualAE05EK-SG1363k1365hV11 (bispecific antibody, V domains shown)
VH 1: QVQLVQSGAEVKKPGASVTVSCKASGYTFTDYEMHWIRKPPGEGLEWIGAIDGPTPDTAYSEKFKGRVTLTADKSTSTAYMELSSLTSEDTAVYYCTRFYSYTYWGQGTLVTVSS
VL 1: DIVMTQSPLSLPVTPGEPASISCRSSQPLVHSNRNTYLHWYQEKPGQAPRLLIYKVSNRFSGVPDRFSGSGSGTDFTLKISRVEAEDVGVYYCGQGTQVPYTFGQGTKLEIK
VH 2: QVQLVESGGGLVQPGRSLRLSCAASGFKFSNVWFHWVREAPGKGLEWVAQIKDYYNAYAAYYAPSVKGRFTISRDDSKNSIYLQMNSLKTEDTAVYYCHYVHYASASTLLPAEGVDAWGQGTTVTVSS
VL 2: DIVMTQSPLSLPVTPGEPASISCQPSQEVVHMNRNTYLHWYQKKPGQAPRLLIYKVSNRFPGVPDRFSGSGSGTDFTLKISRVEAEDVGVYYCAQGTSHPFTFGQGTKLEIK
notes: 1+1 tri-specific, FAST-Ig format; Full chains not tied by name

binding result [4]: binds
binding result (Human CD3eg linker [5]): binds
B2: xGPC3/DualAE15-xSG1350k1349hV11 (bispecific antibody, V domains shown)
VH 1: B1 VH 1 with K39Q
VL 1: B1 VL 1 with E43Q
VH 2: B1 VH 2 with E39Q, A60G, A63H, S105A, T108Q
VL 2: B1 VL 2 with K43Q
notes: 1+1 tri-specific, CrossMab format; Full chains not tied by name; also called xGPC3DualAE15-xSG1350kSG1349hV11; xGPC3/DualAE15-xSG1350kSG1349hV11
